Data as given in the Immune Epitope Database (IEDB).
pIC50: −log10 of the molar value.

Columns and labels:
HLA-A*68:02 = test: IEDB peptide-MHC binding, cellular MHC/competitive/fluorescence; ≥ and ≤ were set here for values at or beyond the usual limits of such assays
HLA-A*02:06 = test: IEDB peptide-MHC binding, purified MHC/competitive/radioactivity; ≥ and ≤ were set here for values at or beyond the usual limits of such assays
HLA-A*02:01 = test: as above
HLA-A*02:03 = test: as above
HLA-A*02:02 = test: as above
[1] = source organism: Vaccinia virus WR
[2] = source organism: Mammarenavirus whitewaterense
[3] = source organism: Hepacivirus hominis

Row | Sequence | pIC50 (HLA-A*68:02; [1]) | pIC50 (HLA-A*02:06; [1]) | pIC50 (HLA-A*02:01; [1]) | pIC50 (HLA-A*02:03; [1]) | pIC50 (HLA-A*02:02; [1]) | also measured
1 | VQFSILNNPV | 4.40 | 6.73 | 5.72 | 6.43 | 6.88 | –
2 | LLLENKSLTI | 5.02 | 5.88 | 6.36 | 6.01 | 6.01 | –
3 | YNLSLSAAV | – | – | – | – | – | pIC50 (HLA-A*68:02; [2]): ≤ 4.15; pIC50 (HLA-A*02:06; [2]): 5.78; pIC50 (HLA-A*02:01; [2]): 6.59; pIC50 (HLA-A*02:03; [2]): 5.94; pIC50 (HLA-A*02:02; [2]): 6.06
4 | PTILATLNTL | 5.01 | 6.11 | 5.87 | 6.89 | 6.43 | –
5 | RMPTDMLKL | ≤ 4.15 | 6.17 | 5.74 | 6.97 | 6.02 | –
6 | ALLRMCALV | – | – | – | – | – | pIC50 (HLA-A*68:02; [3]): 5.19; pIC50 (HLA-A*02:06; [3]): 6.38; pIC50 (HLA-A*02:01; [3]): 7.47; pIC50 (HLA-A*02:03; [3]): 7.19; pIC50 (HLA-A*02:02; [3]): 7.08
7 | IVSHLRASTT | 4.22 | 6.76 | 6.05 | 6.95 | 6.86 | –
8 | ILLSRCLWWT | – | – | – | – | – | pIC50 (HLA-A*68:02; [3]): ≤ 4.15; pIC50 (HLA-A*02:06; [3]): 6.61; pIC50 (HLA-A*02:01; [3]): 6.53; pIC50 (HLA-A*02:03; [3]): 5.96; pIC50 (HLA-A*02:02; [3]): 5.32
9 | LLLEWLAEVV | – | – | – | – | – | pIC50 (HLA-A*68:02; source organism: SARS-CoV1): 4.97; pIC50 (HLA-A*02:06; source organism: SARS-CoV1): 9.28; pIC50 (HLA-A*02:01; source organism: SARS-CoV1): 9.43; pIC50 (HLA-A*02:03; source organism: SARS-CoV1): 9.09; pIC50 (HLA-A*02:02; source organism: SARS-CoV1): 9.51
10 | GVSGLYIPGT | 4.80 | 7.49 | 5.33 | 5.67 | 6.85 | –
11 | KLLSTSNVIT | ≤ 4.15 | 5.81 | 5.95 | 5.47 | 5.65 | –
12 | GLVDVCFWS | – | – | – | – | – | pIC50 (HLA-A*68:02; [2]): 5.09; pIC50 (HLA-A*02:06; [2]): 6.27; pIC50 (HLA-A*02:01; [2]): 6.95; pIC50 (HLA-A*02:03; [2]): 5.97; pIC50 (HLA-A*02:02; [2]): 6.94
13 | LLNVQTLISL | 4.84 | 7.01 | 7.14 | 7.80 | 7.62 | –
14 | GLFDINVIGL | 5.15 | 6.62 | 7.89 | 8.85 | 9.80 | –
15 | VLEKKVCAIT | ≤ 4.15 | 5.77 | 5.45 | 5.91 | 6.23 | –
16 | AQFLYLYAL | – | – | – | – | – | pIC50 (HLA-A*68:02; source organism: SARS-CoV1): 5.02; pIC50 (HLA-A*02:06; source organism: SARS-CoV1): 9.46; pIC50 (HLA-A*02:01; source organism: SARS-CoV1): 9.41; pIC50 (HLA-A*02:03; source organism: SARS-CoV1): 8.21; pIC50 (HLA-A*02:02; source organism: SARS-CoV1): 9.04
17 | LMLKATLLCV | – | – | – | – | – | pIC50 (HLA-A*68:02; source organism: SARS-CoV1): 5.05; pIC50 (HLA-A*02:06; source organism: SARS-CoV1): 7.20; pIC50 (HLA-A*02:01; source organism: SARS-CoV1): 7.72; pIC50 (HLA-A*02:03; source organism: SARS-CoV1): 7.68; pIC50 (HLA-A*02:02; source organism: SARS-CoV1): 8.47
18 | LLDDFVEII | – | – | – | – | – | pIC50 (HLA-A*68:02; source organism: SARS-CoV1): 4.52; pIC50 (HLA-A*02:06; source organism: SARS-CoV1): 6.80; pIC50 (HLA-A*02:01; source organism: SARS-CoV1): 7.29; pIC50 (HLA-A*02:03; source organism: SARS-CoV1): 6.28; pIC50 (HLA-A*02:02; source organism: SARS-CoV1): 6.87

Row | Sequence | pIC50 (HLA-A*68:02; [1]) | pIC50 (HLA-A*02:06; [1]) | pIC50 (HLA-A*02:01; [1]) | pIC50 (HLA-A*02:03; [1]) | pIC50 (HLA-A*02:02; [1]) | also measured
19 | IMRNFLRSIA | 4.27 | 6.26 | 6.09 | 6.91 | 7.22 | –
20 | FQFICNLLLL | – | – | – | – | – | pIC50 (HLA-A*68:02; source organism: SARS-CoV1): 5.04; pIC50 (HLA-A*02:06; source organism: SARS-CoV1): 9.06; pIC50 (HLA-A*02:01; source organism: SARS-CoV1): 8.28; pIC50 (HLA-A*02:03; source organism: SARS-CoV1): 7.21; pIC50 (HLA-A*02:02; source organism: SARS-CoV1): 8.10
21 | SLVSKHWELT | 4.79 | 5.57 | 7.02 | 7.46 | 6.39 | –
22 | SMYVIPDEL | 5.15 | 5.55 | 7.04 | 7.89 | 8.30 | –
23 | ALLFLMSFT | – | – | – | – | – | pIC50 (HLA-A*68:02; source organism: SARS-CoV1): 4.79; pIC50 (HLA-A*02:06; source organism: SARS-CoV1): 6.89; pIC50 (HLA-A*02:01; source organism: SARS-CoV1): 6.39; pIC50 (HLA-A*02:03; source organism: SARS-CoV1): 5.70; pIC50 (HLA-A*02:02; source organism: SARS-CoV1): 5.55
24 | LLNMRDLIVT | 4.48 | 6.15 | 5.69 | 6.25 | 5.85 | –
25 | SMSQELAEL | 4.37 | 6.73 | 7.08 | 8.11 | 8.40 | –
26 | GLLYFILFFV | – | – | – | – | – | pIC50 (HLA-A*68:02; [3]): 4.63; pIC50 (HLA-A*02:06; [3]): 6.17; pIC50 (HLA-A*02:01; [3]): 7.29; pIC50 (HLA-A*02:03; [3]): 6.73; pIC50 (HLA-A*02:02; [3]): 6.85
27 | YIEDELRRAA | 4.61 | 6.69 | 6.24 | 6.78 | 6.20 | –
28 | LLKCVSDSWL | 5.01 | 5.33 | 5.81 | 6.93 | 7.12 | –
29 | ILFLTLIVFT | – | – | – | – | – | pIC50 (HLA-A*68:02; source organism: SARS-CoV1): 5.15; pIC50 (HLA-A*02:06; source organism: SARS-CoV1): 6.15; pIC50 (HLA-A*02:01; source organism: SARS-CoV1): 7.68; pIC50 (HLA-A*02:03; source organism: SARS-CoV1): 5.97; pIC50 (HLA-A*02:02; source organism: SARS-CoV1): 7.62
30 | LLEQLIENI | ≤ 4.15 | 6.27 | 5.80 | 5.71 | 6.15 | –
31 | RILGAGCFV | – | – | – | – | – | pIC50 (HLA-A*68:02; source organism: SARS-CoV1): 5.15; pIC50 (HLA-A*02:06; source organism: SARS-CoV1): 7.42; pIC50 (HLA-A*02:01; source organism: SARS-CoV1): 7.70; pIC50 (HLA-A*02:03; source organism: SARS-CoV1): 7.28; pIC50 (HLA-A*02:02; source organism: SARS-CoV1): 7.62
32 | SLIYYQNEVT | 5.14 | 5.37 | 6.28 | 6.22 | 7.11 | –
33 | RALKAYFTA | 4.94 | 7.85 | 6.80 | 6.69 | 5.63 | –
34 | FLYIIKLVFL | – | – | – | – | – | pIC50 (HLA-A*68:02; source organism: SARS-CoV1): 4.58; pIC50 (HLA-A*02:06; source organism: SARS-CoV1): 6.06; pIC50 (HLA-A*02:01; source organism: SARS-CoV1): 7.72; pIC50 (HLA-A*02:03; source organism: SARS-CoV1): 7.66; pIC50 (HLA-A*02:02; source organism: SARS-CoV1): 8.14
35 | ILSLETVKM | 5.01 | 6.55 | 6.69 | 7.92 | 8.32 | –
